Reference: publication PMC9482650, “Quantitative fragmentomics allow affinity mapping of interactomes” (Nature Communications, 2022)

Assays:
Test in all cases: holdup assay
Design in all cases: key: below the threshold = too weak to quantify, mostly under pKd 3.1 to 4
[1] = molecular target: T1, GRIP1_2, Q9Y3R0
T1 sequence (Q9Y3R0 145-248, limits assumed, looked up): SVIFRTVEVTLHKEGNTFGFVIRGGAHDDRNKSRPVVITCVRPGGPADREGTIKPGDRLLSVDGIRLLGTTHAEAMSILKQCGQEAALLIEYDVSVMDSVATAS

[2] = molecular target: TJP2_1, Q9UDY2
Chain of TJP2_1, Q9UDY2 (Q9UDY2 24-128): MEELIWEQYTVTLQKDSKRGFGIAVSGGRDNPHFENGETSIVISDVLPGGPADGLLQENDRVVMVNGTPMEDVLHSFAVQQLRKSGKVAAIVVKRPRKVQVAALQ

[3] = molecular target: Inadl_8, Q8NI35
Chain of Inadl_8, Q8NI35 (Q8NI35 1425-1530): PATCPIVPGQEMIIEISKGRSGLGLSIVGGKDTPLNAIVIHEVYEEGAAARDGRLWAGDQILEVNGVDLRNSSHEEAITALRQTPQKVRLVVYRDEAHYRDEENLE

[4] = molecular target: ARHGEF12, Q9NZN5-2
Chain of ARHGEF12, Q9NZN5-2 (Q9NZN5 other isoform, or with tags, fused parts or gaps): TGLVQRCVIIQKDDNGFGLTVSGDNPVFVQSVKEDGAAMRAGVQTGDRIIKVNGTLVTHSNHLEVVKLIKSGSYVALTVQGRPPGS

[5] = molecular target: MAGI2_2, Q86UL8
Chain of MAGI2_2, Q86UL8 (Q86UL8 410-522): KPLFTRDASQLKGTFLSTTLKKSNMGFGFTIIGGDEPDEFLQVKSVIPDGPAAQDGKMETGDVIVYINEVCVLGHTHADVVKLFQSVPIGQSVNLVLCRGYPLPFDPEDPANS

[6] = molecular target: T2, APBA1_1, Q02410
T2 sequence (Q02410 651-752, limits assumed, looked up): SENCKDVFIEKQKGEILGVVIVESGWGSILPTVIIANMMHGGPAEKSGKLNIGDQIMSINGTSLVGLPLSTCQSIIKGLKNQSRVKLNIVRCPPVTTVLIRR

[7] = molecular target: IL16_1, Q14005
Chain of IL16_1, Q14005 (Q14005 210-306): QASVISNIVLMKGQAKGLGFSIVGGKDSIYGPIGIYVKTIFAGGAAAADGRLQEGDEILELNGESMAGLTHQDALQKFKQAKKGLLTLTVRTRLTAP

[8] = molecular target: MAST2, Q6P0Q8
Chain of MAST2, Q6P0Q8 (Q6P0Q8 1099-1202): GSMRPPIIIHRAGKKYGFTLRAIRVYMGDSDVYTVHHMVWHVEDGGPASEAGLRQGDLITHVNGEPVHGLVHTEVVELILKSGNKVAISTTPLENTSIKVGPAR

[9] = molecular target: MAGI2_5, Q86UL8
Chain of MAGI2_5, Q86UL8 (Q86UL8 915-1017): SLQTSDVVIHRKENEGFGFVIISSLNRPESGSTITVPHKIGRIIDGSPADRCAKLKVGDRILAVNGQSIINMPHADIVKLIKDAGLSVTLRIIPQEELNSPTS

[10] = molecular target: NHERF4_4, Q86UT5
Chain of NHERF4_4, Q86UT5 (Q86UT5 464-550): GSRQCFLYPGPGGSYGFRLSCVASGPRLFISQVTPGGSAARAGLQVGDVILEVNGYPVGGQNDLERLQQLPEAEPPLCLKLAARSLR

[11] = molecular target: T3, HTRA4, P83105
T3 sequence (P83105 378-476, limits assumed, looked up): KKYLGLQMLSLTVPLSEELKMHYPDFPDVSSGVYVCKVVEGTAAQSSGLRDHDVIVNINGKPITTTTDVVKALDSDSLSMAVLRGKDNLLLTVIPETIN

[12] = molecular target: T4, SNTA1, Q13424
T4 sequence (Q13424 82-180, limits assumed, looked up): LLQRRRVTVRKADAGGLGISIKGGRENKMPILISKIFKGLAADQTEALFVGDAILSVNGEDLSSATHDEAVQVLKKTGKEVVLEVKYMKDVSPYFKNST

[13] = molecular target: DLG1_2, Q12959
Chain of DLG1_2, Q12959 (Q12959 314-412): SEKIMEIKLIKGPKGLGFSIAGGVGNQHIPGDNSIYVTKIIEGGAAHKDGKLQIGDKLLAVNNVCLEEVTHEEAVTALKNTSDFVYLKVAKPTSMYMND

[14] = molecular target: LIMK2, P53671
Chain of LIMK2, P53671 (P53671 143-248): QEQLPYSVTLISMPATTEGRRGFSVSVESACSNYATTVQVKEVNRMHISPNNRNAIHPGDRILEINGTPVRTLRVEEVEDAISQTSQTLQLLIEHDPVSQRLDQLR

[15] = molecular target: T5, SNTB1, Q13884
T5 sequence (Q13884 107-205, limits assumed, looked up): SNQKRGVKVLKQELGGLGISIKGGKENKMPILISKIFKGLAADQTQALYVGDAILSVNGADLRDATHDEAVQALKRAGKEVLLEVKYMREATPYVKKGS

[16] = molecular target: Inadl_10, Q8NI35
Chain of Inadl_10, Q8NI35 (Q8NI35 1673-1763): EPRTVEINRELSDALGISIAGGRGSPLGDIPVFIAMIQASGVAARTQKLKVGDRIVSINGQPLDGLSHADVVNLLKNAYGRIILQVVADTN

[17] = molecular target: DLG5_1, Q8TDM6
Chain of DLG5_1, Q8TDM6 (Q8TDM6 617-713): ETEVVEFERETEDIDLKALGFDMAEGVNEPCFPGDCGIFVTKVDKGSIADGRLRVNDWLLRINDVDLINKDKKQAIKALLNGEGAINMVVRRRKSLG

[18] = molecular target: T6, DVL3, Q92997
T6 sequence (Q92997 244-331, limits assumed, looked up): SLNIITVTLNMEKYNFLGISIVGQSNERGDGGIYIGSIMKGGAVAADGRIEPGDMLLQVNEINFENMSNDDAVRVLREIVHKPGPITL

[19] = molecular target: T7, RAPGEF6, Q8TEU7
T7 sequence (Q8TEU7 525-625, limits assumed, looked up): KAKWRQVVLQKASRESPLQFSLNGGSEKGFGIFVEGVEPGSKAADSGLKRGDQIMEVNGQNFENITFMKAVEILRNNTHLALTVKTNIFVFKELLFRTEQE

[20] = molecular target: GRIP2_3, Q9C0E4
Chain of GRIP2_3, Q9C0E4 (Q9C0E4 238-339): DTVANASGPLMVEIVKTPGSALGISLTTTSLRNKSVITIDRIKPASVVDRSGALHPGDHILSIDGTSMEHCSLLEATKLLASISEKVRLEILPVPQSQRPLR

[21] = molecular target: T8, SNTG1, Q9NSN8
T8 sequence (Q9NSN8 52-150, limits assumed, looked up): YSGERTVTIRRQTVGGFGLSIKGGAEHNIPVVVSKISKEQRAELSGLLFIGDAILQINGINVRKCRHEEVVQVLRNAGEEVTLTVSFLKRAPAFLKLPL

[22] = molecular target: T9, TX1BP3, O14907
T9 sequence (O14907 10-122, limits assumed, looked up): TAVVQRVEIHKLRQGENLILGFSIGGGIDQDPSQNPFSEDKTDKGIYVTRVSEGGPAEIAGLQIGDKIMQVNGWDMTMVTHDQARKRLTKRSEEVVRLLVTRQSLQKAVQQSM

[23] = molecular target: T10, RHPN1, Q8TCX5
T10 sequence (Q8TCX5 508-602, limits assumed, looked up): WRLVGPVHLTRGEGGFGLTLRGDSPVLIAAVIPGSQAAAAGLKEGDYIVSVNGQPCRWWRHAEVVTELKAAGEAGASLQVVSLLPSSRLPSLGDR

[24] = molecular target: NHERF4_1, Q86UT5-2
Chain of NHERF4_1, Q86UT5-2 (Q86UT5 other isoform, or with tags, fused parts or gaps): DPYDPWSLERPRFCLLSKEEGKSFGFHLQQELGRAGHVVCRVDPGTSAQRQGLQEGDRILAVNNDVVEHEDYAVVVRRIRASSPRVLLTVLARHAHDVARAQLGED

[25] = molecular target: T11, LIN7C, Q9NUP9
T11 sequence (Q9NUP9 88-185, limits assumed, looked up): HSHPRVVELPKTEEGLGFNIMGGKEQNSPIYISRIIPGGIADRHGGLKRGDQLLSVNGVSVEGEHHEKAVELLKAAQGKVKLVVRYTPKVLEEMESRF

[26] = molecular target: DLG2_3, Q15700
[27] = plain residues with an end cap or a label only (N-terminal biotin on a linker: ado-ado)
[28] = plain residues with an end cap or a label only (N-terminal biotin on a linker: ttds)
[29] = plain residues with an end cap or a label only (N-terminal biotin on a linker: none)

B1: NCBP2L, A6PVI3 (peptide)
chain: RGGFGRQTQI
pKd [1, 27]: below the threshold | pKd [2, 27]: 3.88 | pKd [3, 27]: 3.49 | pKd [4, 27]: 4.28 | pKd [5, 27]: 4.48 | pKd [6, 27]: below the threshold | pKd [7, 27]: below the threshold | pKd [8, 27]: 5.6 | pKd [9, 27]: below the threshold | pKd [10, 27]: below the threshold | pKd [11, 27]: below the threshold | pKd [12, 27]: 4.2 | pKd [13, 27]: 4.92 | pKd [14, 27]: below the threshold | pKd [15, 27]: 4.51 | pKd [16, 27]: below the threshold | pKd [17, 27]: below the threshold | pKd [18, 27]: below the threshold | pKd [19, 27]: below the threshold | pKd [20, 27]: below the threshold | pKd [21, 27]: below the threshold | pKd [22, 27]: 4.4 | pKd [23, 27]: 4.5 | pKd [24, 27]: 3.8 | pKd [25, 27]: 3.68 | pKd [26, 27]: 4.54

B2: CBP, Q92793 (peptide)
chain: TGDTLEKFVEGL
pKd [1, 28]: below the threshold | pKd [2, 28]: below the threshold | pKd [3, 28]: below the threshold | pKd [4, 28]: below the threshold | pKd [5, 28]: below the threshold | pKd [6, 28]: below the threshold | pKd [7, 28]: below the threshold | pKd [8, 28]: below the threshold | pKd [9, 28]: below the threshold | pKd [10, 28]: below the threshold | pKd [11, 28]: below the threshold | pKd [12, 28]: below the threshold | pKd [13, 28]: below the threshold | pKd [14, 28]: below the threshold | pKd [15, 28]: below the threshold | pKd [16, 28]: below the threshold | pKd [17, 28]: below the threshold | pKd [18, 28]: below the threshold | pKd [19, 28]: below the threshold | pKd [20, 28]: below the threshold | pKd [21, 28]: below the threshold | pKd [22, 28]: 4.03 | pKd [23, 28]: below the threshold | pKd [24, 28]: 3.71 | pKd [25, 28]: below the threshold | pKd [26, 28]: below the threshold

B3: MERS-E, K9N5R3 (peptide)
chain: DSKPPLPPDEWV
pKd [1, 29]: 3.62 | pKd [2, 29]: 3.84 | pKd [3, 29]: 3.55 | pKd [4, 29]: 3.76 | pKd [5, 29]: below the threshold | pKd [6, 29]: 3.53 | pKd [7, 29]: 3.64 | pKd [8, 29]: 3.66 | pKd [9, 29]: below the threshold | pKd [10, 29]: below the threshold | pKd [11, 29]: 3.68 | pKd [12, 29]: below the threshold | pKd [13, 29]: 3.57 | pKd [14, 29]: below the threshold | pKd [15, 29]: 3.8 | pKd [16, 29]: below the threshold | pKd [17, 29]: below the threshold | pKd [18, 29]: 3.78 | pKd [19, 29]: below the threshold | pKd [20, 29]: 3.52 | pKd [21, 29]: 3.87 | pKd [22, 29]: 3.7 | pKd [23, 29]: below the threshold | pKd [24, 29]: below the threshold | pKd [25, 29]: below the threshold | pKd [26, 29]: below the threshold
